Reference: patent publication US20250312491A1, “BASE EDITING OF TRANSTHYRETIN GENE” (Beam Therapeutics Inc., priority 2022, published 2025)
Oligonucleotides are written 5' to 3', each unit as a sugar letter and its base; * is a phosphorothioate linkage, no mark a phosphodiester; rarer units and linkages stand in square brackets, end groups in braces. Plain capitals give the bases only. m = 2'-O-methyl; r = 2'-OH (RNA)

B1: GA461: guide RNA, human/cyno TTR, protospacer TACTCACCTCTGCATGCTCA (SEQ ID NO: 27), gRNA SEQ ID NO: 15 (nucleic acid)
guide: TACTCACCTCTGCATGCTCAGTTTTAGAGCTAGAAATAGCAAGTTAAAATAAGGCTAGTCCGTTATCAACTTGAAAAAGTGGCACCGAGTCGGTGCTTTT
modifications: chemistry not given here
B2: GA458: guide RNA, cyno TTR, protospacer GCCATCCTGCCAAGAACGAG (SEQ ID NO: 28), gRNA SEQ ID NO: 29; cynomolgus equivalent of GA457 (nucleic acid)
guide: mG*mC*mC*rArUrCrCrUrGrCrCrArArGrArArCrGrArGrGrUrUrUrUrArGrArGrCrUrArGrArArArUrArGrCrArArGrUrUrArArArArUrArArGrGrCrUrArGrUrCrCrGrUrUrArUrCrArArCrUrUrGrArArArArArGrUrGrGrCrArCrCrGrArGrUrCrGrGrUrGrCrU*mU*mU*mU
B3: GA460: guide RNA, human/cyno TTR, protospacer TATAGGAAAACCAGTGAGTC (SEQ ID NO: 26), gRNA SEQ ID NO: 14 (nucleic acid)
guide: TATAGGAAAACCAGTGAGTCGTTTTAGAGCTAGAAATAGCAAGTTAAAATAAGGCTAGTCCGTTATCAACTTGAAAAAGTGGCACCGAGTCGGTGCTTTT
modifications: chemistry not given here
B4: GA457: guide RNA, human TTR, protospacer GCCATCCTGCCAAGAATGAG (SEQ ID NO: 24), gRNA SEQ ID NO: 11 (nucleic acid)
guide: GCCATCCTGCCAAGAATGAGGTTTTAGAGCTAGAAATAGCAAGTTAAAATAAGGCTAGTCCGTTATCAACTTGAAAAAGTGGCACCGAGTCGGTGCTTTT
modifications: chemistry not given here
B5: GA521: modified guide RNA, human TTR, GA457 spacer with 2′-O-methyl modified tracr, SEQ ID NO: 11 (nucleic acid)
guide: GCCATCCTGCCAAGAATGAGGTTTTAGAGCTAGAAATAGCAAGTTAAAATAAGGCTAGTCCGTTATCAACTTGAAAAAGTGGCACCGAGTCGGTGCTTTT
modifications: chemistry not fully specified
B6: GA459: guide RNA, human TTR, protospacer GCAACTTACCCAGAGGCAAA (SEQ ID NO: 25), gRNA SEQ ID NO: 13 (nucleic acid)
guide: GCAACTTACCCAGAGGCAAAGTTTTAGAGCTAGAAATAGCAAGTTAAAATAAGGCTAGTCCGTTATCAACTTGAAAAAGTGGCACCGAGTCGGTGCTTTT
modifications: chemistry not given here

What was measured:
[1] = molecular target: T1, Asialoglycoprotein receptor (ASGP-R) (Homo sapiens, UniProt P07306); details: ligand: N-acetylgalactosamine (GalNAc); cited from earlier work
T1 sequence (P07306 1-291): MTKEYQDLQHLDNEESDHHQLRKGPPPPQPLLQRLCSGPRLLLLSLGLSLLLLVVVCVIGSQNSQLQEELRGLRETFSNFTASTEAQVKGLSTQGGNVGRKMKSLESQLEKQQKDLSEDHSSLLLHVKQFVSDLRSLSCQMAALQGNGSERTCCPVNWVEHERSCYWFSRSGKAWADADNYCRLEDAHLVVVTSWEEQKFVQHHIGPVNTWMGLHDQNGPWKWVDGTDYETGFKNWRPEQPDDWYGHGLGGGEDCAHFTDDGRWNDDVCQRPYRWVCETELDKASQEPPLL
T1 sequence (P07307 1-311 partner): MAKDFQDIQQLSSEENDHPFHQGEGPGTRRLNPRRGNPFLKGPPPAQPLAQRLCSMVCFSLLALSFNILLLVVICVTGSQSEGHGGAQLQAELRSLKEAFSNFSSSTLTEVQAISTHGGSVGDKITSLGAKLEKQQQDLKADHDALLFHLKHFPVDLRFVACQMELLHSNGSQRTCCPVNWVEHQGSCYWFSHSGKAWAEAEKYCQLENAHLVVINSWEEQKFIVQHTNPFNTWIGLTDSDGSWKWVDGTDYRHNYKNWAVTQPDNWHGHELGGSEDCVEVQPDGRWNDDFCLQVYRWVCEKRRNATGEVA

[2] = system: TTR on-target site; experiment: Off-target validation in human primary hepatocytes: on-target site editing; type: cell-based; details: for on-target site editing efficiency (in words): treated vs control groups, human primary hepatocytes
Description: (§2) Several candidate off-target sites were analyzed for off-target editing in human primary hepatocytes.

[3] = system: human TTR gene; experiment: Base editing in primary human hepatocytes co-transfected with gRNA and ABE8.8 mRNA, NGS; type: cell-based; details: for Human hepatocytes- Editing % 625, rep 1 / Human hepatocytes- Editing % 625, rep 2: 625 ng/RNA/mL; for Human hepatocytes- Editing % 625, rep 1 / Human hepatocytes- Editing % 1250, rep 1 / Human hepatocytes- Editing % 2500, rep 1: rep 1, 3 days after transfection; for Human hepatocytes- Editing % 625, rep 2 / Human hepatocytes- Editing % 1250, rep 2 / Human hepatocytes- Editing % 2500, rep 2: rep 2, 3 days after transfection; for Human hepatocytes- Editing % 1250, rep 1 / Human hepatocytes- Editing % 1250, rep 2: 1250 ng/RNA/mL; for Human hepatocytes- Editing % 2500, rep 1 / Human hepatocytes- Editing % 2500, rep 2: 2500 ng/RNA/mL; for editing activity in human primary hepatocytes (in words): ABE8.8 mRNA co-transfection
Description: With this example, gRNA sequences were identified that permit ABE8.8 (and other ABE variants containing Streptococcus pyogenes Cas9, such as ABE7.10, or another Cas protein that can use the NGG PAM) to either: 1) disrupt the start codon, or 2) disrupt splice sites, whether donors or acceptors, via A→G editing within its editing window (roughly positions 4 to 7 in the 20-nt protospacer region of DNA). Five sequences were identified throughout the human TTR gene (Table 1). gRNAs were synthesized matching each of the protospacer sequences and otherwise conforming to the standard 100-nt Streptococcus pyogenes CRISPR gRNA sequence, with each gRNA molecule having a minimal degree of chemical modifications (specified in Table 1).
(§1) The mRNA, and corresponding amino acid, sequence of the ABE8.8 (MA004) used in shown below in Table 11. Three days after transfection, genomic DNA was harvested from the hepatocytes, and assessed for base editing with next-generation sequencing of PCR amplicons generated around the target splice site. […] See FIGS. 5A-5C, FIG. 6, and Tables 2-3.

[4] = system: candidate off-target sites; experiment: Off-target validation in human primary hepatocytes: candidate off-target site editing; type: cell-based
Description: With a view towards establishing the safety of a base-editing therapy knocking down of TTR in the human liver in vivo, off-target mutagenesis analysis is assessed in primary human hepatocytes. […] The in vitro biochemical assay ONE-seq was used to generate a list of candidate off-target sites and to determine the propensity of a ribonucleoprotein comprising the ABE8.8 base editor protein and each of the three protospacer guides sequences (GA457, GA460, and GA461) to cleave oligonucleotides in a library.
For each site, the total number of edited reads was normalized to the total number of edited reads assigned to the on-target site, and this ratio defines the ONE-seq score for the site. Sites were ranked by ONE-seq score, and those with a score equal to or larger than 0.001, were selected for validation. A score equal to or larger than 0.001 encompasses sites that have down to 1000-fold less editing activity in the biochemical assay compared to editing of the on-target site. This threshold is based on the premise that in cells, if there is 100% on-target editing, 1/1000-fold less editing activity would translate to <0.1% off-target editing, which falls below the lower limit of detection of editing by NGS.
as §2

[5] = system: cynomolgus monkey TTR gene; experiment: Base editing in primary cynomolgus hepatocytes transfected with gRNA and ABE8.8 mRNA, NGS; type: cell-based; details: for Cyno hepatocytes- Editing % 156.25: 156.25 ng/RNA/mL; for Cyno hepatocytes- Editing % 312.5: 312.5 ng/RNA/mL; for Cyno hepatocytes- Editing % 625: 625 ng/RNA/mL; for Cyno hepatocytes- Editing % 1250: 1250 ng/RNA/mL; for Cyno hepatocytes- Editing % 2500: 2500 ng/RNA/mL; for Cyno hepatocytes- Editing % 5000: 5000 ng/RNA/mL; for editing activity in cynomolgus primary hepatocytes (in words): ABE8.8 mRNA co-transfection
Description: as §1

[6] = system: TTR gene; experiment: GA521 dose response base editing in primary human hepatocytes, NGS; type: cell-based; details: MessengerMax transfection, various doses total RNA (ng/ml), 3 days
Description: Exemplary guide RNA GA521 was transfected into primary human hepatocytes using MessengerMax transfection. GA521 disrupts the start codon AUG of the TTR gene by editing it to ACG with an A-to-G base editor (e.g., ABE8.8; ABE8.8-m).
Three days after transfection, genomic DNA was harvested from the hepatocytes, and assessed for base editing with next-generation sequencing of PCR amplicons generated around the target splice site.
FIG. 29 depicts dose response for human gRNA GA521 in primary human hepatocytes. Percent base editing at various doses (ng/ml) total RNA was determined from NGS analysis. GA521 was the guide RNA.

[7] = GA460 On-target TATAGGAAAACCAGTGAGTC
[8] = GA457 site OT29 GACATCCTGTCAAGGATCAG
[9] = GA457 site OT31 GCCATAAGCCAAAGAATGAC
[10] = GA459 On-target GCAACTTACCCAGAGGCAAA

| Molecule | on-target site editing efficiency (in words) [2] | Human hepatocytes- Editing % 625, rep 1 [3] [%] | Human hepatocytes- Editing % 625, rep 2 [3] [%] | Human hepatocytes- Editing % 1250, rep 1 [3] [%] | Human hepatocytes- Editing % 1250, rep 2 [3] [%] | Human hepatocytes- Editing % 2500, rep 1 [3] [%] | Human hepatocytes- Editing % 2500, rep 2 [3] [%] | editing activity in human primary hepatocytes (in words) [3] | off-target editing at candidate off-target sites (in words) ([4]; human primary hepatocytes) | Cyno hepatocytes- Editing % 156.25 [5] [%] | Cyno hepatocytes- Editing % 312.5 [5] [%] | Cyno hepatocytes- Editing % 625 [5] [%] | Cyno hepatocytes- Editing % 1250 [5] [%] | Cyno hepatocytes- Editing % 2500 [5] [%] | Cyno hepatocytes- Editing % 5000 [5] [%] | editing activity in cynomolgus primary hepatocytes (in words) [5] | other results |
| --- | --- | --- | --- | --- | --- | --- | --- | --- | --- | --- | --- | --- | --- | --- | --- | --- | --- |
| CC(=O)NC1O[C@H](CO)[C@H](O)[C@H](O)[C@H]1O (stereo partly drawn) [N-Acetyl-D-Galactosylamine] | – | – | – | – | – | – | – | – | – | – | – | – | – | – | – | – | affinity for ASGP-R relative to D-Gal [1]: 50 fold |
| B1 | high editing efficiency | 21.81 | 22.31 | 32.82 | 32.38 | 40.42 | 39.43 | high editing activity | little to no off-target editing | 0.07 | 7.45 | 13.16 | 19.46 | 29.8 | 37.53 | high editing activity | SUM Editing %-Human Primary Hepatocytes Treat rep 2 ([2]; GA461 On-target TACTCACCTCTGCATGCTCA): 58.9% |
| B2 | – | – | – | – | – | – | – | – | – | 6.06 | 10.65 | 16.07 | 22.74 | 27.25 | 35.91 | high editing activity | – |
| B3 | high editing efficiency | 23.77 | 22.27 | 38.33 | 35.8 | 47.61 | 47.79 | high editing activity | little to no off-target editing | 1.62 | 11.22 | 18.44 | 31.71 | 38.25 | 40.16 | high editing activity | SUM Editing %-Human Primary Hepatocytes Treat rep 1 [2, 7]: 76.4%; SUM Editing %-Human Primary Hepatocytes Treat rep 2 [2, 7]: 74.3% |
| B4 | high editing efficiency | 17.24 | 15.39 | 26.49 | 24.86 | 33.96 | 31.31 | high editing activity | – | – | – | – | – | – | – | – | % Editing-human primary hepatocytes Treated ([2]; GA457 On-target GCCATCCTGCCAAGAATGAG): 54.21%; % Editing-human primary hepatocytes Net ([2]; GA457 On-target GCCATCCTGCCAAGAATGAG, treated minus untreated): 54.1%; net editing at all off-target sites ([4]; 47 candidate off-target sites, human primary hepatocytes): less than 0.4%; % Editing-human primary hepatocytes Net ([4]; GA457 site OT3 GCCATACCTGCCATGAATGAG): 0.01%; % Editing-human primary hepatocytes Net [4, 8]: 0.05%; % Editing-human primary hepatocytes Treated [4, 8]: 0.21%; % Editing-human primary hepatocytes Net [4, 9]: 0.09%; % Editing-human primary hepatocytes Treated [4, 9]: 0.09% |
| B5 | – | – | – | – | – | – | – | – | – | – | – | – | – | – | – | – | percent base editing in primary human hepatocytes [6]: greater than 40% |
| B6 | high editing efficiency | 3.79 | 3.89 | 5.46 | 6.15 | 8.5 | 8.69 | – | little to no off-target editing | – | – | – | – | – | – | – | SUM Editing %-Human Primary Hepatocytes Treat rep 1 [2, 10]: 14.17%; SUM Editing %-Human Primary Hepatocytes Treat rep 2 [2, 10]: 14.29% |
